# Measurements from patent EP2330122A1, “OFA/iLRP derived modified peptide” (Asklepios Kliniken Hamburg Gmbh, priority 2009, dated 2011).
# Where no end group is shown, it is not given here.
# What was measured:
# [1] = tested on: tumor cells from CLL patients; assay: 51Chromium release assay on tumor cells from CLL patients; format: cell-based, human; conditions: CTL induction with the peptide
# Procedure: For the induction of OFA/iLR peptide-specific CTL obtained from patients with CLL CDS^+ T cells were separated from PBMC using immunomagnetic beads (MACS®, Miltenyi, Bergisch-Gladbach, Germany) and co-cultured with autologous irradiated OFA/iLR peptide-pulsed CD8^+/CD4^+-depleted PBMC. CTL were weekly restimulated with autologous irradiated peptide-pulsed CD8^+ICD4^+-depleted PBMC in the presence of IL-2 (20IU/ml; CellConcepts, Weisskirch, Germany) and IL-7 (10ng/ml; PeproTech, Hamburg, Germany). After at least four weekly restimulations, CTL reactivity was determined in a conventional 4h ^51Chromium release assay. Antibody blocking experiments were performed as previously described (Zeis M, Siegel S, Schmitz M et al. Induction of cytotoxic T lymphocytes against hematologic neoplasms by survivin RNA-transfected dendritic cells. J Immunol. 2003; 170, 5391-5397).
# T cells specific for HLA-A* 02-restricted iLR-ASK-a2 peptide were tested in a standard ^51Chromium release assay on tumor cells from CLL patients.
# [2] = biological target: T1, HLA-A*0201 molecule on the TAP-deficient T2 cell line (human); assay: T2 binding assay
# T1 construct: whole, on cells; MHC class I on T2 cells, loaded with peptide from outside; also called HLA-A2-molecule; HLA-A*02-molecule
# [3] = biological target: T1, HLA-A*0201 molecule on the …; assay: T2 binding assay, compared with the native peptide SEQ ID No. 2
molecule,measurement,setting,value
VAIENPADV [natural processed iLR66-74 peptide],cytotoxicity obtained by stimulation of patients PBMC with the peptide,[1],no cytotoxicity
"VAIENPADV (Synthetic 9-mer; also called naturally processed iLR peptide; naturally processed peptide) [native iLR66-74, naturally processed OFA/iLR peptide (VAIENPADV)]",binding result,[2],binds
VLIENPADV (It is OFA/iLRP AA66-AA74 with the second residue changed from Ala to Leu; also called modified peptide) [iLR-ASK-A2 66-74 modified OFA/iLR peptide (VLIENPADV)],binding result,[3],binds
